Source: publication doi:10.1101/2025.05.15.654344 (bioRxiv, 2025)

B1: D-dopachrome tautomerase (D-DT or MIF-2), wild type (natural protein, human, UniProt P30046 1-118, looked up)
chain: MPFLELDTNLPANRVPAGLEKRLCAAAASILGKPADRVNVTVRPGLAMALSGSTEPCAQLSISSIGVVGTAEDNRSHSAHFFEFLTKELALGQDRILIRFFPLESWQIGKIGTVMTFL
B2: MIF-2 C56S variant (natural protein, human, UniProt P30046 1-118, looked up)
chain: MPFLELDTNLPANRVPAGLEKRLCAAAASILGKPADRVNVTVRPGLAMALSGSTEPSAQLSISSIGVVGTAEDNRSHSAHFFEFLTKELALGQDRILIRFFPLESWQIGKIGTVMTFL
B3: WT MIF-2 bound to Ebselen (Cys23 covalently modified) (natural protein, human, UniProt P30046 1-118, looked up)
chain: MPFLELDTNLPANRVPAGLEKRLCAAAASILGKPADRVNVTVRPGLAMALSGSTEPCAQLSISSIGVVGTAEDNRSHSAHFFEFLTKELALGQDRILIRFFPLESWQIGKIGTVMTFL
modifications: Cys23 covalently modified by Ebselen
B4: C56S MIF-2 bound to Ebselen (Cys23 covalently modified) (natural protein, human, UniProt P30046 1-118, looked up)
chain: MPFLELDTNLPANRVPAGLEKRLCAAAASILGKPADRVNVTVRPGLAMALSGSTEPSAQLSISSIGVVGTAEDNRSHSAHFFEFLTKELALGQDRILIRFFPLESWQIGKIGTVMTFL
modifications: Cys23 covalently modified by Ebselen

Target: the molecule itself
Test: NMR spin relaxation

| Protein | stoichiometry N |
| --- | --- |
| B1 | 3 |
| B2 | 3 |
| B3 | 3 |
| B4 | 3 |
